Results reported in publication doi:10.1101/2025.06.03.657256 (bioRxiv, 2025).

B1: PLIN4-20mer (domain or fragment, human, UniProt Q96Q06 260-919, looked up)
chain: SKTVLTGTKDTVCSGVTGAMNVAKGTIQTGVDTSKTVLTGTKDTVCSGVTGAMNVAKGTIQTGVDTSKTVLTGTKDTVCSGVTGAMNVAKGTIQTGVDTTKTVLTGTKNTVCSGVTGAVNLAKEAIQGGLDTTKSMVMGTKDTMSTGLTGAANVAKGAMQTGLNTTQNIATGTKDTVCSGVTGAMNLARGTIQTGVDTTKIVLTGTKDTVCSGVTGAANVAKGAVQGGLDTTKSVLTGTKDAVSTGLTGAVNVAKGTVQTGVDTTKTVLTGTKDTVCSGVTSAVNVAKGAVQGGLDTTKSVVIGTKDTMSTGLTGAANVAKGAVQTGVDTAKTVLTGTKDTVTTGLVGAVNVAKGTVQTGMDTTKTVLTGTKDTIYSGVTSAVNVAKGAVQTGLKTTQNIATGTKNTFGSGVTSAVNVAKGAAQTGVDTAKTVLTGTKDTVTTGLMGAVNVAKGTVQTSVDTTKTVLTGTKDTVCSGVTGAANVAKGAIQGGLDTTKSVLTGTKDAVSTGLTGAVKLAKGTVQTGMDTTKTVLTGTKDAVCSGVTGAANVAKGAVQMGVDTAKTVLTGTKDTVCSGVTGAANVAKGAVQTGLKTTQNIATGTKNTLGSGVTGAAKVAKGAVQGGLDTTKSVLTGTKDAVSTGLTGAVNLAKGTVQTGVDT
B2: PLIN4-4mer[557:] (domain or fragment, human, UniProt Q96Q06 557-688, looked up)
chain: TKSVVIGTKDTMSTGLTGAANVAKGAVQTGVDTAKTVLTGTKDTVTTGLVGAVNVAKGTVQTGMDTTKTVLTGTKDTIYSGVTSAVNVAKGAVQTGLKTTQNIATGTKNTFGSGVTSAVNVAKGAAQTGVDT
B3: PLIN4-4mer[689:] (domain or fragment, human, UniProt Q96Q06 689-820, looked up)
chain: AKTVLTGTKDTVTTGLMGAVNVAKGTVQTSVDTTKTVLTGTKDTVCSGVTGAANVAKGAIQGGLDTTKSVLTGTKDAVSTGLTGAVKLAKGTVQTGMDTTKTVLTGTKDAVCSGVTGAANVAKGAVQMGVDT
B4: 4x1mer[260:] released from MBP-4x1mer[260:] by TEV protease (domain or fragment, human, UniProt Q96Q06 260-292, looked up)
chain: SKTVLTGTKDTVCSGVTGAMNVAKGTIQTGVDTSKTVLTGTKDTVCSGVTGAMNVAKGTIQTGVDTSKTVLTGTKDTVCSGVTGAMNVAKGTIQTGVDTSKTVLTGTKDTVCSGVTGAMNVAKGTIQTGVDT
B5: 1mer[260:] (peptide, UniProt Q96Q06 260-292, looked up)
peptide: SKTVLTGTKDTVCSGVTGAMNVAKGTIQTGVDT
B6: PLIN4-4mer[326:] (domain or fragment, human, UniProt Q96Q06 326-457, looked up)
chain: SKTVLTGTKDTVCSGVTGAMNVAKGTIQTGVDTTKTVLTGTKNTVCSGVTGAVNLAKEAIQGGLDTTKSMVMGTKDTMSTGLTGAANVAKGAMQTGLNTTQNIATGTKDTVCSGVTGAMNLARGTIQTGVDT

Columns and labels:
[1] = target: the molecule itself; assay: negative-stain EM of fibrils
thioflavin T = target: the molecule itself; assay: thioflavin T

| Protein | binding result [1] | binding result (thioflavin T) |
| --- | --- | --- |
| B1 | binds | – |
| B2 | – | binds |
| B3 | – | binds |
| B4 | – | binds |
| B5 | – | binds |
| B6 | – | binds |
